B1: CPEB3 Ribozyme (parent)
chain: UAACAGGGGGCCACAGCAGAAGCGUUCACGUCGCAGCCCCUGUCAGAUUCUGGUGAAUCUGCGAAUUCUGCUGUAUAUCUC

Variants of: B1
Assay: self-cleavage, relative activity (ratio to wild type); higher = more cleavage; in vitro, sequencing
How it was run: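 Relative activity compares each variant's cleaved/total read fraction with that of the unmutated ribozyme. To get these fractions, barcoded CPEB3 ribozyme libraries from rounds of error-prone PCR were transcribed with T7 RNA polymerase for 5 hours at 37°C and then given 15 min of DNase I treatment before EDTA was added. The RNAs were reverse transcribed with template switching and sequenced on Illumina, and DNA sequencing linked barcodes to variants. A minimum of 5 reads applied, and three batches were averaged.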
Variant C29U C68U has a self-cleavage of 0.42.
C29U C79A gave a self-cleavage of 0.7.
For C29U C79G, the self-cleavage was 0.68.
For C29U C79U, the self-cleavage was 0.38.
For C29U C81A, the self-cleavage was 0.71.
Variant C29U G30U has a self-cleavage of 0.23.
For C29U G42A, the self-cleavage was 0.21.
Variant C29U G42U has a self-cleavage of 0.23.
C29U G52A showed a self-cleavage of 0.46.
Variant C29U G52U has a self-cleavage of 0.39.
Variant C29U G73C has a self-cleavage of 1.15.
C29U U31A showed a self-cleavage of 0.2.
In the case of C29U U31C, the self-cleavage is reported as 0.31.
For C29U U41A, the self-cleavage was 0.43.
C29U U41C showed a self-cleavage of 0.49.
Work on C29U U41G yielded a self-cleavage of 0.26.
C29U U43A showed a self-cleavage of 0.53.
For C29U U43C, the self-cleavage was 0.31.
C29U U43G gave a self-cleavage of 0.48.
In the case of C29U U48C, the self-cleavage is reported as 0.25.
Work on C29U U49A yielded a self-cleavage of 0.16.
For C29U U49C, the self-cleavage was 0.39.
For C29U U51A, the self-cleavage was 0.53.
C29U U51C gave a self-cleavage of 0.46.
With C29U U51G the self-cleavage was 0.8.
Variant C29U U54A has a self-cleavage of 0.54.
Variant C29U U54C has a self-cleavage of 0.42.
Variant C29U U58A has a self-cleavage of 0.43.
With C29U U58C the self-cleavage was 0.46.
C29U U58G gave a self-cleavage of 0.17.
Work on C29U U60A yielded a self-cleavage of 0.2.
Variant C29U U60C has a self-cleavage of 0.24.
C29U U60G gave a self-cleavage of 0.19.
C29U U66A gave a self-cleavage of 0.22.
In the case of C29U U66C, the self-cleavage is reported as 0.37.
Variant C29U U67A has a self-cleavage of 0.29.
C29U U67C showed a self-cleavage of 0.23.
For C29U U69A, the self-cleavage was 0.3.
With C29U U69C the self-cleavage was 0.16.
For C29U U69G, the self-cleavage was 0.35.
For C29U U72A, the self-cleavage was 0.42.
Variant C29U U72C has a self-cleavage of 0.75.
C29U U72G gave a self-cleavage of 0.53.
With C29U U74C the self-cleavage was 0.97.
Variant C29U U76A has a self-cleavage of 0.62.
In the case of C29U U76C, the self-cleavage is reported as 0.52.
For C29U U78A, the self-cleavage was 0.36.
C29U U78C showed a self-cleavage of 0.44.
For C29U U78G, the self-cleavage was 0.61.
For C29U U80A, the self-cleavage was 0.48.
C29U U80C gave a self-cleavage of 0.58.
In the case of G30A, the self-cleavage is reported as 0.29.
G30A A35G showed a self-cleavage of 0.22.
With G30A A35U the self-cleavage was 0.15.
In the case of G30A A45C, the self-cleavage is reported as 0.17.
Variant G30A A45G has a self-cleavage of 0.25.
With G30A A45U the self-cleavage was 0.32.
With G30A A47G the self-cleavage was 0.41.
For G30A A47U, the self-cleavage was 0.18.
G30A A56G showed a self-cleavage of 0.37.
Variant G30A A56U has a self-cleavage of 0.37.
G30A A57G gave a self-cleavage of 0.29.
G30A A64G gave a self-cleavage of 0.43.
With G30A A64U the self-cleavage was 0.34.
With G30A A65G the self-cleavage was 0.38.
Work on G30A A75G yielded a self-cleavage of 0.26.
G30A A77G showed a self-cleavage of 0.4.
In the case of G30A A77U, the self-cleavage is reported as 0.33.
Variant G30A C34G has a self-cleavage of 0.38.
With G30A C39U the self-cleavage was 0.21.
For G30A C40U, the self-cleavage was 0.54.
G30A C68U gave a self-cleavage of 0.12.
With G30A C71U the self-cleavage was 0.18.
With G30A G36A the self-cleavage was 0.4.
In the case of G30A G36U, the self-cleavage is reported as 0.44.
For G30A G46A, the self-cleavage was 0.15.
G30A G52A showed a self-cleavage of 0.21.
G30A G55A gave a self-cleavage of 0.2.
In the case of G30A G61C, the self-cleavage is reported as 0.24.
G30A G63U showed a self-cleavage of 0.13.
With G30A G70A the self-cleavage was 0.39.
G30A G73U showed a self-cleavage of 0.46.
For G30A U31A, the self-cleavage was 0.32.
With G30A U31C the self-cleavage was 0.35.
Variant G30A U31G has a self-cleavage of 0.21.
G30A U41A gave a self-cleavage of 0.14.
For G30A U41C, the self-cleavage was 0.22.
G30A U41G showed a self-cleavage of 0.4.
Variant G30A U43A has a self-cleavage of 0.24.
G30A U43C showed a self-cleavage of 0.24.
G30A U48A gave a self-cleavage of 0.35.
With G30A U48C the self-cleavage was 0.27.
Variant G30A U48G has a self-cleavage of 0.14.
G30A U49A gave a self-cleavage of 0.1.
For G30A U49C, the self-cleavage was 0.16.
Work on G30A U49G yielded a self-cleavage of 0.22.
In the case of G30A U51A, the self-cleavage is reported as 0.15.
In the case of G30A U51G, the self-cleavage is reported as 0.1.
Variant G30A U54C has a self-cleavage of 0.43.
G30A U58A gave a self-cleavage of 0.09.
Work on G30A U58C yielded a self-cleavage of 0.16.
G30A U60A gave a self-cleavage of 0.08.
G30A U60C gave a self-cleavage of 0.15.
With G30A U60G the self-cleavage was 0.34.
In the case of G30A U66A, the self-cleavage is reported as 0.23.
G30A U66C gave a self-cleavage of 0.32.
Work on G30A U67A yielded a self-cleavage of 0.22.
G30A U67C showed a self-cleavage of 0.18.
Variant G30A U69A has a self-cleavage of 0.23.
G30A U69C gave a self-cleavage of 0.33.
G30A U69G showed a self-cleavage of 0.19.
With G30A U72A the self-cleavage was 0.2.
With G30A U72C the self-cleavage was 0.33.
Variant G30A U74A has a self-cleavage of 0.29.
Work on G30A U76A yielded a self-cleavage of 0.13.
G30A U76C gave a self-cleavage of 0.26.
With G30A U78A the self-cleavage was 0.53.
In the case of G30A U78C, the self-cleavage is reported as 0.24.
In the case of G30A U80A, the self-cleavage is reported as 0.22.
Work on G30A U80C yielded a self-cleavage of 0.41.
In the case of G30C, the self-cleavage is reported as 0.28.
In the case of G30C A45C, the self-cleavage is reported as 0.34.
Work on G30C A45U yielded a self-cleavage of 0.09.
G30C A56G gave a self-cleavage of 0.16.
For G30C A57G, the self-cleavage was 0.25.
Variant G30C A64U has a self-cleavage of 0.2.
With G30C A65C the self-cleavage was 0.11.
For G30C A65G, the self-cleavage was 0.11.
With G30C A65U the self-cleavage was 0.3.
G30C A75G showed a self-cleavage of 0.12.
In the case of G30C C40U, the self-cleavage is reported as 0.23.
With G30C C62U the self-cleavage was 0.06.
G30C G33U gave a self-cleavage of 0.19.
Variant G30C G73A has a self-cleavage of 0.11.
G30C U31C showed a self-cleavage of 0.26.
Variant G30C U41C has a self-cleavage of 0.28.
Variant G30C U43C has a self-cleavage of 0.25.
With G30C U48C the self-cleavage was 0.16.
Work on G30C U49C yielded a self-cleavage of 0.08.
G30C U51C showed a self-cleavage of 0.19.
Variant G30C U54A has a self-cleavage of 0.22.
Variant G30C U60A has a self-cleavage of 0.13.
With G30C U60C the self-cleavage was 0.12.
G30C U67A gave a self-cleavage of 0.18.
G30C U67G showed a self-cleavage of 0.09.
With G30C U72A the self-cleavage was 0.13.
Variant G30C U72G has a self-cleavage of 0.16.
In the case of G30C U76A, the self-cleavage is reported as 0.17.
Work on G30C U78C yielded a self-cleavage of 0.38.
With G30C U78G the self-cleavage was 0.2.
G30U gave a self-cleavage of 0.25.
G30U A35G gave a self-cleavage of 0.05.
With G30U A45G the self-cleavage was 0.28.
For G30U A47G, the self-cleavage was 0.22.
Work on G30U A56G yielded a self-cleavage of 0.26.
With G30U A57G the self-cleavage was 0.13.
In the case of G30U A57U, the self-cleavage is reported as 0.14.
G30U A64G showed a self-cleavage of 0.23.
G30U A65G showed a self-cleavage of 0.25.
G30U A77G gave a self-cleavage of 0.16.
Variant G30U C38U has a self-cleavage of 0.26.
With G30U C40U the self-cleavage was 0.2.
G30U C62A gave a self-cleavage of 0.08.
Variant G30U C79G has a self-cleavage of 0.12.
G30U G33A gave a self-cleavage of 0.24.
Variant G30U G42A has a self-cleavage of 0.23.
G30U G52A gave a self-cleavage of 0.17.

Reference: the RNAGym collection of RNA variant scans (doi:10.1093/nar/gkz1192)
